Data reported in publication PMC6843132, “The Plant NF-Y DNA Matrix In Vitro and In Vivo” (Plants, 2019).

T1: At NF-YB2/NF-YC3 histone fold domain (HFD) dimer (A. thaliana, UniProt Q9FGJ3 24-116; Q9ZVL3 55-148)
T1 construct: Nuclear factor Y subunit B2 (AtNF-YB2), Arabidopsis thaliana, aa 24-116, histone fold domain; Nuclear factor Y subunit C3 (AtNF-YC3), Arabidopsis thaliana, aa 55-148, histone fold domain; Preformed heterodimer; the 6His tag was removed with thrombin before gel filtration; also called AtNF-YB2/AtNF-YC3; HFD subunits; source: E. coli, co-expressed, purified (IMAC, thrombin cleavage, gel …)
T1 sequence (looked up) 1: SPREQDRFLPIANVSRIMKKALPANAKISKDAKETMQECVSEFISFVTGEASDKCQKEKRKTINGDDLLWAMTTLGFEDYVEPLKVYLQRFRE
T1 sequence (looked up) 2: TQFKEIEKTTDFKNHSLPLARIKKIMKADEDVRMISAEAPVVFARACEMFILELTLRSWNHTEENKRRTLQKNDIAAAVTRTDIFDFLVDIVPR


Target: T1, At NF-YB2/NF-YC3 histone fold domain …
Test: native gel or EMSA; NF-YA subunit (60-240 nM) with HFD dimer (30 nM) and Cy5-labelled 31 bp CAB2 CCAAT DNA probe (20 nM); 12 mM Tris-HCl pH 8.0, 50 mM NaCl, 50 mM KCl, 5 mM MgCl2, 30 °C 30 min; 6% polyacrylamide, 0.25X TBE; trimer read out as the shifted DNA complex
Details: both partners purified

| Binder | binding result |
| --- | --- |
| AtNF-YA6-6His (aa 170-237) (domain or fragment, Nuclear factor Y subunit A6 (AtNF-YA6), Arabidopsis thaliana, aa 170-237, evolutionarily conserved domain; source: E. coli, purified (IMAC); not shown: His6, C-terminal, kept) not shown | binds |
| AtNF-YA2-6His (aa 134-207) (domain or fragment, Nuclear factor Y subunit A2 (AtNF-YA2), Arabidopsis thaliana, aa 134-207, evolutionarily conserved domain; source: E. coli, purified (IMAC); not shown: His6, C-terminal, kept) not shown | binds |
